Laboratory results published in patent publication US20230330254A1 (Regeneron, published 2023).
Where two headings read alike, the source gives them in different places.

Columns and labels:
[1] = molecular target: T1, full-length human GLP1R on HEK293/CRE-Luc/hGLP1R cells (human, UniProt P43220 24-463); experiment: cell-based or functional assay
[2] = molecular target: T1, full-length human GLP1R on …; experiment: flow cytometry, hGLP1R cells
[3] = molecular target: T2, full-length cynomolgus GLP1R on HEK293/CRE-Luc/mfGLP1R cells (cynomolgus, UniProt F8V479 24-463); experiment: flow cytometry, mfGLP1R cells
T2 construct: whole, on cells

[4] = molecular target: T3, N-terminal ectodomain of human GLP1R expressed with a myc-myc hexahistidine tag (human, UniProt P43220 24-145, limits assumed); experiment: SPR, captured via anti-hFc, 25 C
T3 construct: extracellular domain; also called hGLP1R-MMH; hGLP1R.mmh
T3 sequence (P43220 24-145 limits assumed): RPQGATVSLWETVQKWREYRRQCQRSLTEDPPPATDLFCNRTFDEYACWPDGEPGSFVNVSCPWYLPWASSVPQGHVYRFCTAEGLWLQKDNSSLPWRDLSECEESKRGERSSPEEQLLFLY

[5] = molecular target: T1, full-length human GLP1R on …; experiment: cell-based or functional assay; remark: listed apart in the source
[6] = molecular target: full-length human glucagon receptor on HEK293/CRE-Luc/hGCGR cells (human, UniProt P47871 26-477); experiment: cell-based or functional assay
Sequence of full-length human glucagon receptor on HEK293/CRE-Luc/hGCGR cells (P47871 26-477): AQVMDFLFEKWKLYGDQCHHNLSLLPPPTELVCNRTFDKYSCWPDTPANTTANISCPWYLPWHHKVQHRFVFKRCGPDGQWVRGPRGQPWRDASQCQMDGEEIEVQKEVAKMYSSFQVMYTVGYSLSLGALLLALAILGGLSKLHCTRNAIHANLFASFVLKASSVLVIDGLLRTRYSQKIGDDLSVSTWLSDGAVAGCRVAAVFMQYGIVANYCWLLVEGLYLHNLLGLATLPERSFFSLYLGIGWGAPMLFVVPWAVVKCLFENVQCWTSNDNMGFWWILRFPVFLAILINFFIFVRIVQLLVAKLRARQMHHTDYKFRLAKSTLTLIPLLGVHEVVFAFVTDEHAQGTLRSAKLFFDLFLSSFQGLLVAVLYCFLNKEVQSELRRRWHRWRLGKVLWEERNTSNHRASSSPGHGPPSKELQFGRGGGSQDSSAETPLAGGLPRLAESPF

[7] = molecular target: T4, full-length human glucagon-like peptide 2 receptor on HEK293/CRE-Luc/hGLP2R cells (human, UniProt O95838 1-553); experiment: cell-based or functional assay
T4 sequence (looked up): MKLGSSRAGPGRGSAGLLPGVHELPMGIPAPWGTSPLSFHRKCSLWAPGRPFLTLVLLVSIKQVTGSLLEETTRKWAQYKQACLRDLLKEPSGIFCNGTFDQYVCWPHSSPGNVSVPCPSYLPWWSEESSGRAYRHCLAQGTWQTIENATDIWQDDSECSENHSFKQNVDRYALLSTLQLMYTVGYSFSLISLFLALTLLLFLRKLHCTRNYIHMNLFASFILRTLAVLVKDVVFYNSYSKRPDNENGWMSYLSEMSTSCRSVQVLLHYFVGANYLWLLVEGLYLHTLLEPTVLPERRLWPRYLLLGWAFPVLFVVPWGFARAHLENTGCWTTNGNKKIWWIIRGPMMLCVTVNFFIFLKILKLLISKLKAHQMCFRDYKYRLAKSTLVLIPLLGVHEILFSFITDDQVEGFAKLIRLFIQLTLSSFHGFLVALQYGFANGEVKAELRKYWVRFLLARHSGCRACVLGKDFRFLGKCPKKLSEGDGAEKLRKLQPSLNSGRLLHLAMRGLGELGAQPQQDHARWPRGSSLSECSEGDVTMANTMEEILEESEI

[8] = molecular target: T5, full-length human gastric inhibitory polypeptide receptor on HEK293/CRE-Luc/hGIPR cells (human, UniProt P48546 22-466); experiment: cell-based or functional assay
T5 sequence (looked up): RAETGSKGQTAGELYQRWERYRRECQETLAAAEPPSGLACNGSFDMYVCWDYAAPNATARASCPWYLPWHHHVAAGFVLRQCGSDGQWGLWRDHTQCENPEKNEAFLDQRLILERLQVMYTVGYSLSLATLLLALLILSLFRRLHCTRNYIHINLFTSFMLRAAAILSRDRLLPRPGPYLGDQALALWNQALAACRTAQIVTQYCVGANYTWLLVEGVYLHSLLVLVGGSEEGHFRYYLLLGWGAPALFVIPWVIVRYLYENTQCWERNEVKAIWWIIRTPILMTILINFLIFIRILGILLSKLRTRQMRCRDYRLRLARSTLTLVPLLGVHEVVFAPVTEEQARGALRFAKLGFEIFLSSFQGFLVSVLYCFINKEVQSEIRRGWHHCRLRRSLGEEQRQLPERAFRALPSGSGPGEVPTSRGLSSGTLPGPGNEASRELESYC

[9] = molecular target: T2, full-length cynomolgus GLP1R on …; experiment: cell-based or functional assay
[10] = molecular target: T1, full-length human GLP1R on …; experiment: flow cytometry, hGLP1R cells; remark: listed apart in the source
[11] = molecular target: T6, full-length mouse GLP1R on HEK293/CRE-Luc/mGLP1R cells (mouse, UniProt O35659 22-463); experiment: flow cytometry, mGLP1R cells
T6 construct: whole, on cells
T6 sequence (looked up): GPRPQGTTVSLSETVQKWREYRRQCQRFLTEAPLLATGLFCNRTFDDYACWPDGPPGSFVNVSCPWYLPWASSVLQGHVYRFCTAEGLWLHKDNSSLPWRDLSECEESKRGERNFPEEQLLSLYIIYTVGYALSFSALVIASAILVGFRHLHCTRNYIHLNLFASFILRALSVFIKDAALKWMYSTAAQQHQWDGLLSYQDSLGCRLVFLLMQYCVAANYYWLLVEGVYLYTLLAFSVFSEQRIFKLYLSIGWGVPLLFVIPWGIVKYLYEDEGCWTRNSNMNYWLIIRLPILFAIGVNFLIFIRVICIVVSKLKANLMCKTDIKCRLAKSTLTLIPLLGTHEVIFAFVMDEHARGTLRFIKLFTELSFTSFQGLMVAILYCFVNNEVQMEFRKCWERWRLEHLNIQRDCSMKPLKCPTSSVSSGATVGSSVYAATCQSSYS

[12] = molecular target: T2, full-length cynomolgus GLP1R on …; experiment: flow cytometry, mfGLP1R cells; remark: listed apart in the source
[13] = molecular target: T1, full-length human GLP1R on …; experiment: cell-based or functional assay; remark: listed apart in the source
[14] = molecular target: T3, N-terminal ectodomain of human GLP1R …; experiment: SPR, captured via anti-hFc, 25 C; remark: listed apart in the source

B1: REGN8070-M3190 (antibody, human IgG4 S228P, kappa, V domains shown)
VH: QVQLVESGGGVGQPGRSLRLSCAASGFTFSRNAMHWVRQAPGKGLEWVAVISYDGSNKHYADSVKGRFTISRDNSKNTLYLEMNSLRVEDTAVYYCAKGGIPFDYWGQGTLVTVSS
VL: DIVMTQSPLSSPVTLGQPASISCRSSQSLVHFDGNTYLSWLHQRPGQPPRLLIYKISNRFSGVPDRFSGSGAGTDFTLKISRVEPEDVGVYYCMHATQFPYTFGQGTKLEIKR
modifications: linker-payload M3190 (LP11) on Gln 3 of the N-terminal Q-tag LLQGSG
notes: antibody-tethered drug conjugate; also called REGN8070 ATDC
- CRE-luc EC50 [1]: 0.0984 nM
- CRE-luc Relative Potency (% M2361 EC50) [1]: 16.5%
- CRE-luc Relative Signal:Noise (% M2361) [1]: 112%
- CRE-luc S/N [1]: 71.8 fold
- EC50 [2]: 4.39 nM
- Flow S/N [2]: 166 fold
- EC50 [3]: 3.71 nM
- Flow S/N [3]: 155 fold
- 90 nM hGLP1R.mmh Bound (RU) [4]: 86.7 RU
- Kd [4]: 0.069 nM
- koff [4]: 6.06e-05 s⁻¹
- kon [4]: 878000 M⁻¹ s⁻¹
- t1/2 [4]: 3.17 h
- CRE-luc EC50 [5]: 0.094 nM
- CRE-luc EC50 [6]: > 200 nM
- CRE-luc EC50 [7]: > 200 nM
- CRE-luc EC50 [8]: > 200 nM
- CRE-luc EC50 [9]: 0.0973 nM

B2: REGN9268 (antibody, human IgG4 S228P, kappa)
heavy: not shown
light: LLQGSGEIVLTQSPGTLSLSPGERDTLSCRASQSIAGRYVAWYQQKPGQAPRLLIYGASSRATGIPDRFSGSGSGTDFTLTISRLEPEDFAVYYCQQYGSSPWTFGQGTKVEIKRTVAAPSVFIFPPSDEQLKSGTASVVCLLNNFYPREAKVQWKVDNALQSGNSQESVTEQDSKDSTYSLSSTLTLSKADYEKHKVYACEVTHQGLSSPVTKSFNRGEC
notes: IgG4; Q-tag LLQGSG at the N-terminus of the light chain; also called mAb 17; REGN9268 unconjugated Ab
- EC50 [10]: 3.33 nM
- EC50 [11]: 45 nM
- EC50 [3]: 0.81 nM
- EC50 [12]: 4.13 nM

B3: COMP Anti-GLP1R mAb1 conjugated to LP4 (antibody, human IgG4 S228P, kappa, V domains shown)
VH: QVTLKESGPGILQPSQTLSLTCSFSGFSLSTSGTGVGWIRQPSGKGLEWLSHIWWDDVKRYNPALKSRLTISRDTSYSQVFLRIASVDTADTATYYCARILDGTGPMDYWGQGTSVTVSS
VL: QIVLTQSPAIMSASPGEKVTMTCSASSRVTYMHWYQQRSGTSPKRWIYDTSKLASGVPARFSGSGSGTSYSLTISSMEAEDAATYYCQQWGNNPQYTFGGGTRLEIKR
modifications: azido-PEG3-amine on the Gln of the N-terminal Q-tag LLQGSG, clicked to LP4 (DIBAC-suc-PEG24-P9)
- CRE-luc EC50 [13]: 0.0629 nM
- CRE-luc Relative Potency (% P8 EC50) [13]: 55.3%
- CRE-luc Relative Signal:Noise (% P8) [13]: 87.4%
- CRE-luc S/N [13]: 284 fold

B4: COMP Anti-GLP1R mAb1 conjugated to LP3 (antibody, human IgG4 S228P, kappa, V domains shown)
VH: QVTLKESGPGILQPSQTLSLTCSFSGFSLSTSGTGVGWIRQPSGKGLEWLSHIWWDDVKRYNPALKSRLTISRDTSYSQVFLRIASVDTADTATYYCARILDGTGPMDYWGQGTSVTVSS
VL: QIVLTQSPAIMSASPGEKVTMTCSASSRVTYMHWYQQRSGTSPKRWIYDTSKLASGVPARFSGSGSGTSYSLTISSMEAEDAATYYCQQWGNNPQYTFGGGTRLEIKR
modifications: azido-PEG3-amine on the Gln of the N-terminal Q-tag LLQGSG, clicked to LP3 (DIBAC-suc-PEG12-P9)
- CRE-luc EC50 [13]: 0.044 nM
- CRE-luc Relative Potency (% P8 EC50) [13]: 62.1%
- CRE-luc Relative Signal:Noise (% P8) [13]: 115%
- CRE-luc S/N [13]: 272 fold

B5: COMP Anti-GLP1R mAb1 conjugated to LP1 (antibody, human IgG4 S228P, kappa, V domains shown)
VH: QVTLKESGPGILQPSQTLSLTCSFSGFSLSTSGTGVGWIRQPSGKGLEWLSHIWWDDVKRYNPALKSRLTISRDTSYSQVFLRIASVDTADTATYYCARILDGTGPMDYWGQGTSVTVSS
VL: QIVLTQSPAIMSASPGEKVTMTCSASSRVTYMHWYQQRSGTSPKRWIYDTSKLASGVPARFSGSGSGTSYSLTISSMEAEDAATYYCQQWGNNPQYTFGGGTRLEIKR
modifications: azido-PEG3-amine on the Gln of the N-terminal Q-tag LLQGSG, clicked to LP1 (DIBAC-suc-PEG4-P9)
- CRE-luc EC50 [13]: 0.0282 nM
- CRE-luc Relative Potency (% P8 EC50) [13]: 96.7%
- CRE-luc Relative Signal:Noise (% P8) [13]: 90.3%
- CRE-luc S/N [13]: 213 fold

B6: COMP Anti-GLP1R mAb1 conjugated to LP2 (antibody, human IgG4 S228P, kappa, V domains shown)
VH: QVTLKESGPGILQPSQTLSLTCSFSGFSLSTSGTGVGWIRQPSGKGLEWLSHIWWDDVKRYNPALKSRLTISRDTSYSQVFLRIASVDTADTATYYCARILDGTGPMDYWGQGTSVTVSS
VL: QIVLTQSPAIMSASPGEKVTMTCSASSRVTYMHWYQQRSGTSPKRWIYDTSKLASGVPARFSGSGSGTSYSLTISSMEAEDAATYYCQQWGNNPQYTFGGGTRLEIKR
modifications: azido-PEG3-amine on the Gln of the N-terminal Q-tag LLQGSG, clicked to LP2 (DIBAC-suc-PEG8-P9)
- CRE-luc EC50 [13]: 0.0217 nM
- CRE-luc Relative Potency (% P8 EC50) [13]: 126%
- CRE-luc Relative Signal:Noise (% P8) [13]: 96.4%
- CRE-luc S/N [13]: 227 fold

B7: H2aM30341N (antibody, V domains shown)
VH: QVQLQQWGAGLLKPSETLSLTCAVYGGSFSGYYWSWIRQPPGKGLEWIGEINHAGSTNYNPSLKSRITISVDTSKNQFSLKLSSVTAADTAVYYCARGWYYGSGSYHRNWFDPWGQGTLVTVSS
VL: EIVLTQSPGTLSLSPGERATLSCRASQSVYYSYLAWYQQKPGQAPRLLIYGASNRATGIPDRFSGSGSGTDFTLTISRLEPEDFAVYYCQQYGNSPWTFGQGTKVEIK
notes: parent of H4H30341N (REGN9278 without Q-tag); also called parent of REGN9278
- 90 nM hGLP1R.mmh Bound (RU) [14]: 48.4 RU
- Kd [14]: 0.346 nM
- koff [14]: 7.74e-05 s⁻¹
- kon [14]: 224000 M⁻¹ s⁻¹
- t1/2 [14]: 2.49 h
- EC50 [2]: 2.75 nM
- Flow S/N [2]: 595 fold
- EC50 [3]: 2.1 nM
- Flow S/N [3]: 646 fold

B8: REGN8072-M3190 (antibody, human IgG4 S228P, kappa, V domains shown)
VH: QVQLVESGGGVVQPARSLRLSCAASGFAFSRSAMHWVRQAPGKGLEWVAVISYDGSNKYYTDSVKGRFTISRDNSKNTLYLQMNTLRAEDTALYYCAKMYTTMDSFDYWGQGTLVTVSS
VL: DIQLTQSPSFLSASVGDRVTITCWASQGISSYLAWYQQKPGKAPKLLIYAASTLQSGVPSRFSGSGSGTEFTLTISSLQPEDFALYYCQQLNSYPRTFGQGTKVEIKR
modifications: linker-payload M3190 (LP11) on Gln 3 of the N-terminal Q-tag LLQGSG
notes: antibody-tethered drug conjugate; also called REGN8072 ATDC; anti-GLP1R mAb4-LP11
- CRE-luc EC50 [1]: 0.0874 nM
- CRE-luc Relative Potency (% M2361 EC50) [1]: 18.6%
- CRE-luc Relative Signal:Noise (% M2361) [1]: 125%
- CRE-luc S/N [1]: 80.7 fold
- EC50 [2]: 3.88 nM
- Flow S/N [2]: 173 fold
- EC50 [3]: 3.39 nM
- Flow S/N [3]: 148 fold
- 90 nM hGLP1R.mmh Bound (RU) [4]: 77.3 RU
- Kd [4]: 0.17 nM
- koff [4]: 0.000297 s⁻¹
- kon [4]: 1.74e+06 M⁻¹ s⁻¹
- t1/2 [4]: 0.65 h
- CRE-luc EC50 [5]: 0.114 nM
- CRE-luc EC50 [6]: > 200 nM
- CRE-luc EC50 [7]: > 200 nM
- CRE-luc EC50 [8]: > 200 nM
- CRE-luc EC50 [9]: 0.137 nM
